Measurements taken from patent publication US20260056193A1 (SEER, published 2026).
No end group written: not given here.

Experiments:
Experiment in all cases: LC-MS/MS of proteins captured from pooled plasma by peptide-modified nanoparticles
A0A075B6K0 = target: T1, A0A075B6K0
T1 construct: Protein found in pooled plasma by LC-MS/MS; only the UniProt ID is printed
Protocol: (§1) Provided herein are proteins that are captured by surfaces modified with peptides described herein. Briefly, surfaces are modified with the 10K-peptide-MaganinII. Pooled plasma samples containing proteins and the modified surfaces are combined and the surfaces are isolated and captured proteins are analyzed by liquid chromatography tandem mass spectrometry. The nanoparticle prepared in Example 5 was used and selected proteins that include those in Table 9. These proteins were captured by the peptide-modified surface, but not surfaces without peptide modification.

E7EQ47 = target: T2, E7EQ47
T2 construct: Protein found in pooled plasma by LC-MS/MS; only the UniProt ID is printed
Protocol: as §1

A0A0C4DGL1 = target: T3, A0A0C4DGL1
T3 construct: Protein found in pooled plasma by LC-MS/MS; only the UniProt ID is printed
Protocol: as §1

F8W7Q4 = target: T4, F8W7Q4
T4 construct: Protein found in pooled plasma by LC-MS/MS; only the UniProt ID is printed
Protocol: as §1

A0A0C4DH33 = target: T5, A0A0C4DH33
T5 construct: Protein found in pooled plasma by LC-MS/MS; only the UniProt ID is printed
Protocol: as §1

T5 sequence (A0A0C4DH33 20-117): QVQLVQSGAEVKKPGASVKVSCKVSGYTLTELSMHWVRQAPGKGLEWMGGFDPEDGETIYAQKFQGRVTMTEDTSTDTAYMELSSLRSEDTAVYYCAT
T1 sequence (A0A075B6K0 20-115): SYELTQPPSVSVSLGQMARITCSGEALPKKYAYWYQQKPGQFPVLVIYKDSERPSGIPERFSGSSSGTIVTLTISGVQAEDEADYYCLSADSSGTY

B1: 10K peptide-MaganinII coupled to Surface 428 nanoparticle (Surface 428-MaganinII) (peptide)
peptide: KKKKKKKKKKGIGKFLHSAKKFGKAFVGEIMNS
modifications: not fully specified; also: coupled through Sulfo-SMCC (maleimide) to thiols of Surface 428 nanoparticle, amine carrying SMCC not given here
notes: Many copies of the peptide stand on one nanoparticle; also called SMCC-MagaininII
- Median Intensity (A0A075B6K0): 3.81
- Median Intensity (E7EQ47): 3.5
- Median Intensity (A0A0C4DGL1): 3.62
- Median Intensity (F8W7Q4): 3.55
- Median Intensity (A0A0C4DH33): 3.89
